Patent US20250257130A1 (NONA BIOSCIENCES SUZHOU, published 2025)

Columns and labels:
[1] = molecular target: T1, human ROR1 on cells (HEK293T-hROR1, PANC-1, A549) (human, UniProt Q01973 30-937); experiment: flow cytometry, PANC-1 cells
T1 construct: whole, on cells; one molecule for the three cell lines; also called huROR1; cell surface ROR1
Description: (§1) In brief, anti-ROR1 antibodies were serially diluted in staining buffer (PBS containing 2% FBS). Antibody solution was incubated with 1×10⁵ cells at 4° C. for 1 hour. […] After 1-hour incubation at 4° C., cells were washed twice with staining buffer and subjected to flow cytometry. PR000374 (Bench marker 1) and non-relevant IgG isotype control (Crownbio) were used as positive and negative controls, respectively.

[2] = molecular target: T1, human ROR1 on cells (HEK293T-hROR1, …); experiment: flow cytometry on A549 cells, MFI (Mean)
Description: (§2) Binding of recombinant anti-ROR1 antibodies to human or cynomolgus ROR1-overexpressing cells was tested by flow cytometry. In this example, ROR1-expressing cell lines are HEK293T cell lines that had been transfected to express human ROR1 on the surface (HEK293T-hu ROR1, KYINNO BIOTECHNOLOGY CO., LTD, Catalog #KC-1018), CHO-K1 cell lines that had been transfected to express cynomolgus ROR1 (CHOK1-cyno ROR1), PANC-1 (ATCC, catalog: CRL-1469) or A549 cell lines (Shanghai Institute of Biochemistry and Cell Biology, Chinese Academy of Sciences).
as §1

[3] = molecular target: T2, hu-ROR2-ECD-his (Acrobiosystems RO2-H52E5) (human, UniProt Q01974 34-403); experiment: ELISA, plate coated with hu-ROR2-his at 1 µg/mL
T2 construct: extracellular domain; bought protein; also called Human ROR2 his-tagged protein; Human ROR2, His Tag
In short: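 Plates were coated overnight at 4 °C with 1 μg/mL human ROR2-ECD-his and blocked with 2% BSA. Serially diluted anti-ROR1 antibodies were bound for 1 h at 37 °C, then secondary antibody for 1 h at 37 °C. Detection was by TMB (~5 min), stopped with H2SO4, and read at 450/570 nm.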

[4] = molecular target: T3, Human ROR1-ECD-his (Acro Biosystems RO1-H522y) (human, UniProt Q01973 30-406); experiment: BLI in-tandem competition; competitor: PR303125
T3 construct: extracellular domain; bought protein; also called hROR1-ECD-his; hu-ROR1-ECD-his
Description: (§3) To determine if anti-ROR1 antibodies bind to human ROR1 on different or approximate binding epitopes, the ForteBio Octet® RED96e platform was used to perform epitope competition experiments on the anti-ROR1 antibodies. Human ROR1 protein (Acrobiosystems, #RO1-H522y) was biotinylated and then captured onto SA biosensors (ForteBio, #18-5020) to reach loading level of 0.3-0.4 nm. The in-tandem competition assay format was applied and it contains two association steps. Firstly, the antigen-loaded biosensors bind to each antibody (a.k.a, First antibody, 1st Ab) with a saturating concentration of 200 nM for 180 seconds to reach equilibrium and then secondly bind to the competing antibodies (a.k.a, Second antibody, 2nd Ab) of 200 nM for 180 seconds. The second binding signals were recorded as the 100% signal of each antibody when the first antibodies were replaced by kinetics buffer. All the binding data were analyzed using ForteBio Data Analysis 11.0 software. The inhibition rate is calculated by the following formula: […]

[5] = molecular target: T1, human ROR1 on cells (HEK293T-hROR1, …); experiment: flow cytometry on PANC-1 cells, MFI (APC-A Median)
Description: as §2, §1

[6] = molecular target: T3, Human ROR1-ECD-his (Acro Biosystems …); experiment: BLI in-tandem, row = 1st Ab; competitor (2nd Ab): PR000374
Description: as §3

[7] = molecular target: T3, Human ROR1-ECD-his (Acro Biosystems …); experiment: BLI in-tandem, row = 1st Ab; competitor (2nd Ab): PR005338
Description: as §3

[8] = molecular target: T3, Human ROR1-ECD-his (Acro Biosystems …); experiment: BLI in-tandem, row = 1st Ab; competitor (2nd Ab): PR005340
Description: as §3

[9] = molecular target: T3, Human ROR1-ECD-his (Acro Biosystems …); experiment: BLI in-tandem, row = 1st Ab; competitor (2nd Ab): PR007417
Description: as §3

[10] = molecular target: T1, human ROR1 on cells (HEK293T-hROR1, …); experiment: flow cytometry on PANC-1 cells, MFI (FITC-A Median)
Description: as §2, §1

[11] = molecular target: T4, cynomolgus ROR1 on CHO-K1-cynoROR1 cells (cynomolgus monkey, UniProt A0A2K5WTX7 30-937); experiment: flow cytometry on CHOK1-cynoROR1 cells, MFI (APC-A Median) [top panel]
T4 construct: whole, on cells
Description: as §2, §1

[12] = molecular target: T3, Human ROR1-ECD-his (Acro Biosystems …); experiment: BLI, ROR1-His on HIS1K sensor, antibody in solution
In short: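 His-tagged ROR1 (20 nM) captured on HIS1K biosensors; serially diluted antibodies in kinetics buffer as analyte. Association and dissociation rate constants measured by Octet biolayer interferometry, sensors regenerated with 10 mM glycine-HCl pH 1.5 between cycles.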

T3 sequence (Q01973 30-406): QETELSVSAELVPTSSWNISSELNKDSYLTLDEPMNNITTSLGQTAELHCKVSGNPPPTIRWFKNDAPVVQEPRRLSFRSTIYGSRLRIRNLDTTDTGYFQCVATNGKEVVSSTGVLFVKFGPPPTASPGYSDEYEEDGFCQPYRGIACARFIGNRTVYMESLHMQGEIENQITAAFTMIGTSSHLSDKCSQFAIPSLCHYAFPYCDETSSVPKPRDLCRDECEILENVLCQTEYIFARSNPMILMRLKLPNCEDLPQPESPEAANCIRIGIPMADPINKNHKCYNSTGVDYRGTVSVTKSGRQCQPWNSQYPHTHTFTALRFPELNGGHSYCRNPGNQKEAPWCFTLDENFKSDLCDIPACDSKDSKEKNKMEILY
T2 sequence (Q01974 34-403): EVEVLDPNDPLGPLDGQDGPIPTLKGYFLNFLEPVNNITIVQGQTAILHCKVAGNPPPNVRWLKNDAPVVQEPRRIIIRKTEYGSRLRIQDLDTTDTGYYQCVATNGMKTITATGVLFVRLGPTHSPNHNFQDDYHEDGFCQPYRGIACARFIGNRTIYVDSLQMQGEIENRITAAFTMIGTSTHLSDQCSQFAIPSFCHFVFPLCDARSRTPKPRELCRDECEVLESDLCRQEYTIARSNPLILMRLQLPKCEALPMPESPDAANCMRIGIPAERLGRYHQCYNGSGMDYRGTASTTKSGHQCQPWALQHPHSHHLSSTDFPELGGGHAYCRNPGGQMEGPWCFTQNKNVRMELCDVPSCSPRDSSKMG
T1 sequence (Q01973 30-937): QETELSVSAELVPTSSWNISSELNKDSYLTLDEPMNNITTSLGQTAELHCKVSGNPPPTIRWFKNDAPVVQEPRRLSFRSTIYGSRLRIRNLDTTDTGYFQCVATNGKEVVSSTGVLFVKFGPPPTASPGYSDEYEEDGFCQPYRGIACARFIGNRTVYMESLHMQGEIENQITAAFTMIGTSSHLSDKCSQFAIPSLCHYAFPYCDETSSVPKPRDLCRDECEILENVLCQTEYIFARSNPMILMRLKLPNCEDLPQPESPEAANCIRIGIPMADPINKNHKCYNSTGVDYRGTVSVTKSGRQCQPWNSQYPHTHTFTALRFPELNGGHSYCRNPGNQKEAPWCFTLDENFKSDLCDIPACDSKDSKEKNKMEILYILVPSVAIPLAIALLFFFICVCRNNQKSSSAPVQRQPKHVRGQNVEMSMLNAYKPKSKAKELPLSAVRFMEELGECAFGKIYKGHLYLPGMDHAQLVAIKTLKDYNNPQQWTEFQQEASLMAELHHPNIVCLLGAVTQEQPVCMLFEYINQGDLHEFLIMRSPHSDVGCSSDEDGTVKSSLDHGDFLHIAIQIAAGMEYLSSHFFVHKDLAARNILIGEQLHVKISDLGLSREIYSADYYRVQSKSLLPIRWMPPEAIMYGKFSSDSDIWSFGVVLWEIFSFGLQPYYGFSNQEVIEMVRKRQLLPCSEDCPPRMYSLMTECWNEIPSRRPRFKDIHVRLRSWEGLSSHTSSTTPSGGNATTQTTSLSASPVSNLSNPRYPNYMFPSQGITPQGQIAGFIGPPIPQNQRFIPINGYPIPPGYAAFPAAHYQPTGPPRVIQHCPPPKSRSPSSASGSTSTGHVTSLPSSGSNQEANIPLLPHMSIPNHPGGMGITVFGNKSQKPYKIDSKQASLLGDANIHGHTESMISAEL

Binder	EC50 [1] [µg/mL]	MAX(MFI) [1] [MFI]	EC50 (read off the curve) [2] [µg/mL]	binding result [3]	Inhibition (%) [4] [%]	EC50 (read off the curve) [5] [nM]	Inhibition (%) [6] [%]	Inhibition (%) [7] [%]	Inhibition (%) [8] [%]	Inhibition (%) [9] [%]	EC50 (read off the curve) [10] [nM]	EC50 (read off the curve) [11] [nM]	Kd [12] [nM]	koff [12] [s⁻¹]	kon [12] [M⁻¹ s⁻¹]
PR000374 (antibody, human IgG1, kappa, V domains shown, positive control; also called Bench marker 1) VH: EVQLVESGGGLVQPGRSLRLSCTASGSDINDYPITWVRQAPGQGLEWIGFINSGGSTWYASWVKGRFTISRDDSKSIAYLQMNSLKTEDTAVYYCARGYSTYYRDFNIWGQGTLVTVSS VL: DIQMTQSPSSLSASVGDRVTINCQASQSIDSNLAWFQQKPGQPPKLLIYRASNLASGVPDRFSGSGSGTDFTLTISSLEAEDVATYYCLGGVGAVSYRTSFGGGTKVEIKR	0.905	442000	~0.6	no binding (tested: about 15 µg/ml)	-45	~5	111	-7.76	-7.48	-10.5	~8	~5	–	–	–
PR303125 (antibody, human IgG1, V domains shown, HCAb (heavy chain-only, human IgG1 Fc), no light chain) VH: EVQLLESGGGLVQPGGSLRLSCAASGFTFSSHAMSWVRQAPGKGLEWVSAISGSGDSTHYAASVKGRFTISRDNSKNTLYLQMNSLRAEDTAVYYCETLLRFLESLGNDGFKIWGQGTMVTVSS	0.463	883000	~0.2	no binding (tested: about 15 µg/ml)	104	–	–	–	–	–	–	–	< 0.001	< 1e-07	165000
PR303191 (antibody, human IgG1, V domains shown, HCAb (heavy chain-only, human IgG1 Fc), no light chain) VH: EVQLLESGGGLVQPGGSLRLSCAASGFIFGSYAMSWVRQAPGKGLEWVSGISGTGGNTYYADSVKGRFTISRDNSKNTLYLQMNSLRAEDTAVYFCERGITIHGVVIIPPDYRGQGTLVTVSS	–	364000	–	no binding (tested: about 15 µg/ml)	80	–	–	–	–	–	–	–	0.0395	0.000115	2.9e+06
